Measurements published in PMC2716403 (2009).

B1: Nup153 ZnF region (protein)
chain: AGSSWQCDTCLLQNKVTDNKCIACQAAKLPLKETAKQTGIGTPSKSDKPASTSGTGFGDKFKPAIGTWDCDTCLVQNKPEAVKCVACETPKPGTGVKRALPLTVASESPVTASSSTTVTTGTLGFGDKFKRPVGSWECPVCCVSNKAEDSRCVSCTSEKPGLVSASSSNSVPVSLPSGGCLGLDKFKKPEGSWDCEVCLVQNKADSTKCIACESAKPGTKSEFKGFGT
modifications: GDP-bound Ran
B2: Nup153 ZnF region (protein)
chain: B1 chain
B3: Nup153 ZnF1 ZnF1 (peptide)
chain: AGSSWQCDTCLLQNKVTDNKCIACQAAKL
modifications: GDP-bound Ran
B4: Nup153 ZnF3 ZnF3 (peptide)
chain: VGSWECPVCCVSNKAEDSRCVSCTSEKPG
modifications: GDP-bound Ran

Each binder was assayed against Ran (Homo sapiens, UniProt P62826) (assay: ITC).

Kd | Binder
1 µM | B1
20 µM | B2
6.5 µM | B3
6.6 µM | B4
